Results from US20130121989.

What was measured:
[1] = biological target: T1, Tetrahymena K40R α-tubulin (axonemes from a K40R Tetrahymena mutant), P41351
T1 chain: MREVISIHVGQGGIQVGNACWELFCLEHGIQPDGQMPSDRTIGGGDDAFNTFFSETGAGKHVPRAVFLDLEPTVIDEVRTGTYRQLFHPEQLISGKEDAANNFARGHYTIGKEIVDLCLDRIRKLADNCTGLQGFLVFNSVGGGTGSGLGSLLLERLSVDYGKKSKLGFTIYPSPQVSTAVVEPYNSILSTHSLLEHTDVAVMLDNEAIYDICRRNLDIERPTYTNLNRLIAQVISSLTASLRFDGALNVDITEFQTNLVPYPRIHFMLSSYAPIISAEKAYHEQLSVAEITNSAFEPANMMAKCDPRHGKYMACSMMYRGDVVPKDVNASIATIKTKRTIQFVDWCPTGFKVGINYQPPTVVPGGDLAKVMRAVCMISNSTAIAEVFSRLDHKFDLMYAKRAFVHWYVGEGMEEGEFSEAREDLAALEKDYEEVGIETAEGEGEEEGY

[2] = biological target: T2, Tetrahymena α-tubulin with non-acetylated K40, from the MEC17-KO strain (as axonemes or as purified tubulin), P41351
T2 chain: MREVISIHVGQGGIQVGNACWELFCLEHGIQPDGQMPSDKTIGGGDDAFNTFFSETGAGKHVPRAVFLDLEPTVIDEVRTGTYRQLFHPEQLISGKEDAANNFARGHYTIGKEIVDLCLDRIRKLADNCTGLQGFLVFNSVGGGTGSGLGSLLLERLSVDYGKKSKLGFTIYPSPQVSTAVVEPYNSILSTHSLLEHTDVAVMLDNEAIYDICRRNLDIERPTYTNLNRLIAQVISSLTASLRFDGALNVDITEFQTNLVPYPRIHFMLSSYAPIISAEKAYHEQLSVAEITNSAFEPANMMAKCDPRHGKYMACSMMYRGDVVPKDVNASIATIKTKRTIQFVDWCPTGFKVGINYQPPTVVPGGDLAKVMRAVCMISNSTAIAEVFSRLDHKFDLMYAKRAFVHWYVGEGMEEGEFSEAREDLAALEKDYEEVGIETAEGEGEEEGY

B1: GST-MmMEC-17 (recombinant murine MEC-17 expressed in E. coli as a GST fusion) (protein)
chain: MEFPFDVDALFPERITVLDQHLRPPARRPGTTTPARVDLQQQIMTIVDELGKASAKAQHLPAPITSALRMQSNRHVIYILKDTSARPAGKGAIIGFLKVGYKKLFVLDDREAHNEVEPLCILDFYIHESVQRHGHGRELFQHMLQKERVEPHQLAIDRPSPKLLKFLNKHYNLETTVPQVNNFVIFEGFFAHQHRPPTSSLRATRHSRAAVADPIPAAPARKLPPKRAEGDIKPYSSSDREFLKVAVEPPWPLNRAPRRATPPAHPPPRSSSLGNSPDRGPLRPFVPEQELLRSLRLCPPHPTARLLLATDPGGSPAQRRRTRGTPWGLVAQSCHYSRHGGFNTSFLGTGNQERKQGEQEAEDRSASEDRVLLLDGSGEEPTQTGAPRAQAPPPQSWTVGGDIMNARVIRNLQERRSTRPW
[1]
  in vitro acetylation of R40 (K40R) axonemes, western blot with pan acetyl-K antibodies: failed to acetylate R40 axonemes
[2]
  in vitro acetylation of K40 axonemes, western blot with pan acetyl-K antibodies: GST-MmMEC-17 modified K40 axonemes
  in vitro tubulin acetylation (αTAT) assay on MEC17-KO axonemes with acetyl-CoA, western blot with 6-11 B-1 mAb: GST-MmMEC-17, but not GST, mediated a robust αTAT activity in vitro

B2: GFP-Mec17p (Tetrahymena MEC-17 tagged with GFP, crude enriched soluble fraction from transgenic Tetrahymena) (protein)
chain: MFKNQLLSLSLRIQKLRLCRQGNQLKVLQKSINQLLFKTQSIDQILQYLQQKKKTHQSILENQNQHIHSIGLVSQLTNQKINKQKNQKAMEFNFIINKLVQLDQQGLGVYIPRASRSKVSSQQEQQLGQVLNTMGERSAIAQGLKQVITNYDKVQGTDQRVYIVAEGRTCQGFLKVGQKNLFYRDMMGNIKEIKPLCVLDFYVHESCQRQGYGKLLFEYMIQCEQTSPEKLAYDRPSPKLIAFLKKHYNLVKYIAQNNNFVVFDQYFRSDASSQNKQNQNTRSYSQPYSDYSSQIPTNYPQQQQQQSNSKSYPYKQENNIDLMQHSSSRNNKEFLNAGRAILSKEEIYKKDNLSQQNIENTLNNINNSQYSTKSQQQQQYQKDYQLDKYENNWGADKNIKKPPFPGQDRQLDKIQQKIQQTERELDVVNQQIIKQRQNLSQDPLTQNHRAQNVYNTNQFGTSPWAQTGFNYYSTSSSNYGNHYTYYKK
[2]
  in vitro tubulin acetylation (K40 αTAT) assay on MEC17-KO axonemes, western blot with 6-11 B-1 mAb: A crude GFP-Mec17p-enriched fraction (obtained from transgenic Tetrahymena) had K40 αTAT activity in vitro that was dependent on the presence of acetyl-CoA
